Assay results taken from patent publication US20210113678A1 (ENTEROME S A, published 2021).

Assays:
[1] = molecular target: T1, HLA-A*0201 molecule on human T2 cells (human); assay: T2 cells expressing HLA-A*0201, anti-HLA-A2-PE, FACS (Example 7)
T1 construct: read out with anti-HLA-A2 antibody BB7.2-PE; also called HLA-A2

[2] = molecular target: T1, HLA-A*0201 molecule on human T2 cells; assay: T2 cells expressing HLA-A*0201, anti-HLA-A2-PE, FACS
[3] = molecular target: T1, HLA-A*0201 molecule on human T2 cells; assay: as above; remark: listed apart in the source
[4] = molecular target: T1, HLA-A*0201 molecule on human T2 cells; assay: T2 cells expressing HLA-A*0201, anti-HLA-A2-PE, FACS (Example 8)
[5] = molecular target: T1, HLA-A*0201 molecule on human T2 cells; assay: T2 cells expressing HLA-A*0201, anti-HLA-A2-PE, FACS (Example 9)
[6] = molecular target: T1, HLA-A*0201 molecule on human T2 cells; assay: as above; remark: listed apart in the source

| Binder | In vitro binding affinity (relative to reference peptide HIV pol 589-597) [1] | Concentration of peptide that induces 20% of HLA-A2 expression [2] | In vitro binding affinity (relative to reference peptide HIV pol 589-597) [2] | mean relative fluorescence intensity at 1.5625 µM peptide [3] | mean relative fluorescence intensity at 3.125 µM peptide [3] | mean relative fluorescence intensity at 6.25 µM peptide [3] | mean relative fluorescence intensity at 25 µM peptide [3] | mean relative fluorescence intensity at 50 µM peptide [3] | mean relative fluorescence intensity at 100 µM peptide [3] | Concentration of peptide that induces 20% of HLA-A2 expression [4] | In vitro binding affinity (relative to reference peptide HIV pol 589-597) [4] | Concentration of peptide that induces 20% of HLA-A2 expression [5] | In vitro binding affinity (relative to reference peptide HIV pol 589-597) [5] | mean relative fluorescence intensity at 0.1 µM peptide [6] | mean relative fluorescence intensity at 1 µM peptide [6] | mean relative fluorescence intensity at 10 µM peptide [6] | mean relative fluorescence intensity at 100 µM peptide [6] |
| --- | --- | --- | --- | --- | --- | --- | --- | --- | --- | --- | --- | --- | --- | --- | --- | --- | --- |
| ILPFGFILA [peptide 1I9A] | 2.22 |  |  |  |  |  |  |  |  |  |  |  |  |  |  |  |  |
| FLPFGFILV [IL13RA2-B] | 0.49 | 2.9 µM | 0.3 | 14.8 % of HIV peptide | 15.7 % of HIV peptide | 40.8 % of HIV peptide | 86.5 % of HIV peptide | 113 % of HIV peptide | 128 % of HIV peptide | 2.9 µM | 0.3 |  |  |  |  |  |  |
| FLPFGFILM [peptide 1F9M] | 2.62 |  |  |  |  |  |  |  |  |  |  |  |  |  |  |  |  |
| ALPFGFILV [comparative peptide 1A9V] | 3.06 |  |  |  |  |  |  |  |  | 36.5 µM | 3.6 |  |  |  |  |  |  |
| LMLGEFLKL [peptide 2M] |  |  |  |  |  |  |  |  |  |  |  | 2.87 µM | 3.38 | 0.76 % of HIV peptide | 8.37 % of HIV peptide | 48.5 % of HIV peptide | 75.2 % of HIV peptide |
| LTLGEFLKL [BIRC5-H] |  | 53 µM | 16.1 | 1.7 % of HIV peptide | 1.4 % of HIV peptide | 10.8 % of HIV peptide | 9.8 % of HIV peptide | 18.9 % of HIV peptide | 35.6 % of HIV peptide |  |  | 95.9 µM | 113 | 0 % of HIV peptide | 0 % of HIV peptide | 3.52 % of HIV peptide | 20.5 % of HIV peptide |
| FMLGEFLKL [BIRC5-B1] |  | 2.7 µM | 0.8 | 1.9 % of HIV peptide | 22.3 % of HIV peptide | 36.1 % of HIV peptide | 61.7 % of HIV peptide | 77.1 % of HIV peptide | 117 % of HIV peptide |  |  | 1.24 µM | 1.46 | 1.07 % of HIV peptide | 17.4 % of HIV peptide | 65.1 % of HIV peptide | 102 % of HIV peptide |
| FLPFGFILPV [IL13RA2-L] |  |  | 0.3 |  |  |  |  |  |  |  | 0.3 |  |  |  |  |  |  |
